From the NTF2 design screens of Basanta et al. (2020) come the findings set out here.

A short description of this series: protease stability score; higher = more stable; yeast display proteolysis, trypsin and chymotrypsin.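 Further: relative to predicted unfolded state with 0 unfolded-like and 1 meaning tenfold more protease.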
The sequence “SEDEEMAKESVEHVIHALETGDFELFHKMADPSVQLDIDGREFIGWEEVRKHLEELRIERVHIRRLHIELINGQVRSTSDIEMDIRIGDYKIRTEVKVHIIIDKVNGRWRLRSMKIINH” registered a protease stability score of 1.57.

Turning to “DEEALKKLQDILRRNDQDKMNKMIDKDVRVVIGEHEYRGKRNVQEALKREYEHADRFEVKHIEDHGDKLHVDVVLRVDGRDIRFVVVIDVHNGNIRNVKVDFTDEDTQRDFQRQLD”, the protease stability score came out at 1.02.

For the sequence “DETDKLAFELMEELLENFHTGNEERFHQLFDPDVRIIVNGRTLHGRRHWHKILEDIIREWRIKHIHMERLISIGDKARLDMRWNVRVNGREVHTESHVNLTVVDGRITLLEIQHH”, the protease stability score is 1.52.

Regarding “SEIQHELSEMMKIVIHQFLTGDEEEFRHLVDPNVKFIFNGRLLIGWKSLSDFLKEHLERVDHWHVEIKRVRVYDGRLDISGRLRLVQGDKEHNLDVRMHLETIDGKITSVEIRVH”, the protease stability score came to 1.28.

“DEENKSMEEMIRLLTEALRTGDFELIHHLADPRMRILIGDKELHGWESWAQFVVKLGVKHTRIQIDDFRIIDGRINLHTHMEIDIDGRRTSSHTHMETIKVDGRWLITVLKIR” gave a protease stability score of 1.1.

Sequence “DESRESLEEALKIYIHDIKTGDEKSLTELADPNARLNFNGRWHHGREMVTKWMSEMRLHDFKLHELDVQGDKVHIRGEIFFEIDGRVIRSEIHIVMIKINGRWLLHSMHVE” had a protease stability score of 1.17.

In the case of “SEEEEDAEEFSRLFAELMKTGDEESLHRLADPDVRLHYGDKDHHGREQYTESWKRILDELGVDNVRIELKSVRVINGVVYVDSLVRVGDKTFRLIVIFRKINGRWRLESVKVE”, the protease stability score came to 1.29.

Consider “DELEEYLKRLAKEILELMQTGDEDRWMKLADPNVRIDVNGVELHGRETWVERMEDILREIRSEYRIRHVHSQGNWARVDGELDIKVNGRIIRHKTEFIVVTVNGRIREEKFHIR”, for which the protease stability score turned out to be 0.335.

In the case of “SEEEEDIRRLEEMLTKNLLTGNEHKLRRLADPHVQIHINGVDIVGMEWMVQVRREMRVEHVDSRIDDVRVIGDKAEVDGTLIIVGEVDGQRTNETIRIHRVFEKVNGRWILHSETFI”, the protease stability score is 1.15.

Consider “DEREEFIHIAIHLLIHVDRTGDEDTYRKMMDPTTKLEVNGVKYIGRQEVIKFLRHIRIDSQDIKRWELVGDKVDLDVHVDGDVNGRRVREDRQIHLWKVDGRWVLEKIEYK”, for which the protease stability score amounted to 0.955.

“TELEREVETFLEMWITAIHTGDWTTLIELIDPHARLDYDGREIHGMEYYVEEFIKRLQEHGARVDIKIDRIDFQGDKVRVIGQLEVIIGEKREVKDVIIYIEKVDGKWRLHHEEIV” returned a protease stability score of 1.37.

As to “TEEDRLVDKITKELLTALTTGDEEIFLELLDPNARVEYNGKEMHGREFYRKIFEEEEKKIKNLRVEIHDYDAQGDKIHVDQRRHFNGRTYDYRLHYLVVNGKVKSVFVRIL”, the protease stability score worked out at 0.831.

As for “DEDEERKHKILEIWLHSLETGDETKLEEMVDPNVRIEFNGREHHGWEHFLEFVRVFGAKVLHLEDEREDGNKIIHHIVVHVNGRRHTLIVIAHKVNGRWVISSIRFE”, the protease stability score stood at 1.45.

The sequence “DEREKETERMLELFIKVLLTGNEHDLMKLADPHVKLDINGREIHGREHLEEMWRHLWIDDSKRREVRNVGEWSHIYGETDGTFNGKKVRDTVEIRLYIVNGKAHRIYIIER” gave a protease stability score of 0.655.

For the sequence “SEDEKDVKDAFDIWYESHITGNEEYARKMADPDTLSIVNGVRIHGMETWMHFLLKHQKELGIDVYTTDIHHVEVFDGRVKVDLRMREIFNGRHLEFETEVISEKIDGRWHVRSIRIT”, the protease stability score was 1.36.

“DEEEEELRRLLEEIFRNRVTGDEERWLELADPDVRLEEHINGQEIHLHGREDVAEHIREARIHSTEVKDVKVINGVIHLDEKIDGIINGVRRDTRVIVHIVVINGRIKSIRVIVN” had a protease stability score of 1.65.

“DEDTRDVDRFLKRLEETLLTGDWNSIRELFDPNVKVIFNGRHRHGWQNMVDILREIRVTDVRMELDDVEQYGDKITIRGRLRFKGEINGKEQDTSLTIEIILIKVNGKWSVNSIEFR”: the protease stability score turned out to be 2.46.

Take “SHDEEQVDRFLKLWSHAVMTGDWKFMYELLDPHTRLVINGKNVHGREEISKFFHDHVSRIKNLKIEVHLNEVRIFDGRAHLDIEVRIHIGDKNHTIHVEIVVEKVDGRWHVHSIHEK”: the protease stability score was found to be 1.36.

Turning to “SEKRQEERKMLELIEHYWQTGDFELLRELADPDTKVRIGDKERHGWEAYIEILRTLGADHMSIRDQKTVGDYVILHIDIRIGDKRYETTLVSEKFDGRWILRRSEFR”, the protease stability score was 1.16.

The sequence “SEDEHYVRHAIKLWMDSHLTGDEHTLTQLLDPNVRTDFNGREFHGREEASKWTKHLLERMGIKVSDVHLRRLDVQGDKAISHTELIIHFNGVDLSKEVHIDIMKVDGQWMIRDLTII” registered a protease stability score of 0.613.

“SEEHKWVHMAFEVLLKVLKTGDEENVNRLFDPHVRVEWDGREIHGMETFTRELSHLRFKLDDFKLHHISVAEGRAIIHGRFHGRIEYGDKEHEFDSHVILFVLKVDGRWLIKKIEFR”: the protease stability score was 1.83.

The sequence “SEERKELKDIADEIFERHLTGDWKTFLRLADPNVRLQVNGKDIHGREEVVRWLNEIRYHHLTIHDRTVVDGVVISDVEEDGQVNGQKSRYRVHYVFVVVDGRFKSIHVTIT” gave a protease stability score of 1.3.

“RDMEHIMKELIHFVLHAVMTGDEEKMRQYADPHVKLNYNGVEVVGMEEILKIWRHIRIEIEDHTVEHISVVDGKLRSDTRVDVHIEFNGRHIRENLHTHVIIYKVDGRWVFKEVRIK” had a protease stability score of 1.84.

Take “DEERHHFERVYEELMHVRRTGDWERYWELLDPDARLEINGQKYHGREDVLKAVTDIMRHWREKEFDFKRMDVQGDKVKIEGRVNGNFNGRDINTDVEIQITVVDGRLRHERFIIK”: the protease stability score came to 1.71.

“SEDEESAKFVIQLILHSLRTGDFKIIEDLLDPNARVQINGVELHGRERVHEHWERIDHIEDVRIREVSVQGDKLVLNVERREKQGDYESSTKVIIYARKVNGKWVIDEVEVR” yielded a protease stability score of 2.55.

Take “SEDEKNHKIAMRILRRVIETGDERELEELADPDVRIVIGDKFHVGRDVWHEWAHRFDHTHHIEVKDHRHFDGRITLDTEVDVHIDGRRSRMRVIIIARKVDGVWFLHELRIH”: the protease stability score is 1.31.

The sequence “SESEELAEHWFELLIRSILTGDEDTLRRLMDPDVKIQVGDKEWHGREEYIRMVLEFSHLYKNVKLHFRIRSVVDIDGRLTVDTEIINSFDGREYRIDTRLHVDKYDGVWVAKHLIYS” came in with a protease stability score of 1.39.

In turn, “DEEKKDVHKIWELFVEHYYTGDEEFLHRMADPNVRSDVNGKELHGRESLLSLMREWIDRADVIQHIDVEDRRIQGDKAYIRTRFVGLVNGKPVSTDVTIILSKVNGQWFMHRIVIK” displayed a protease stability score of 1.61.

As for “SEIERLLEEWMELVIHSWLTGNEELFTRMFDPNTRLEVEVGDKHDRHIGREEANKWMETLRREIRIEDIEIKEVRIFDGVAHNDGTLHRRVGDKKDYVRVRLILIIYNGKIHHVKIIVR”, the protease stability score is 1.03.

For the sequence “SEHEDMFREMAELLLESLVTGDFRQLKRLADPHMRLKINGKDTHGREEFSRVFKELDDELGVDHIEIKHLRVQGDKIHIHGKMHFDGRWHERHVDVEIFNGVVRHHRVEIR”, the protease stability score turned out to be 1.3.

On to “SEDKHMLELALKLLKDSWKTGDEHLSERLMDPHVRLEQGDKEFHGREASQLWFRQIDHVEDMHVHRIRMINGKAYMDVHVVGNVNGKHVEFHQHIVFHKVNGRWIVESVVDS”, for which the protease stability score came to 1.26.

In turn, “NMDEKLKRWAIEDHIKSDETGDENMKEHYMDPNVRIDIGDYELHGREAAIRDIRRIRHEMGVKVMHVEIEHVDVQGEKIRIHSRLIFEINGKEVRHETNIIYSKFDGRWVLKHESIK” displayed a protease stability score of 0.102.

As for “DEETELDERVIKLLIEALKTGDEHLKERMMDPRVRFLIDGVDLIGREWAFHIARHWRIHIHHIEHKSISRQGDYLRVNGKEDGVEEFDGRRVEKEVSSHRLILKIDGRWVLTHVELR”, the protease stability score was found to be 1.28.

On to “HEHEELLREYVERLLEIWRTGDEEKFMKNADPNVRIVYGDKDVHGREIWVEHFKRLFEELGFKYIDLRRVELINGVLHVHGNWNVNGRERKTELEFKIIDGRITSVQIRVH”, for which the protease stability score is 1.27.

As to “DEEKRFHHKLLRLFLESFLTGDWRLWYKLADPNARFHAPNHESHGREEVVEMIFKWLKQYDHVEIRIHDVRYYNGQIRMDVELHFRQGDKETSTKLDLILIVVDGRITEVHFDVR”, the protease stability score was determined as 0.916.

“SYHEKEALDLYRMTIHNYLTGDWKEWHRLFDPHVRIRIGDKELHGMENFAKWEEDLEKDLGVDHVEIRLRDMEVQGDKFTSDGELRLHIDGRTIRHKVEFHLEVINGRIKSHRINIH” showed a protease stability score of 1.04.

In turn, “REEEEESQKATEHQLHSLRTGDWRSIERLLDPNTRMEINGVDSVGREYVLELFRRWLEEAGINHIELKSYEVFNGKLEIHSEVHYDGRTIKVINIVIKVNGRWLLHHVHIEDL” came in with a protease stability score of 0.561.

“DEDERHFEIWFKLFIHLYLTGNEETLRHLADPNVRTVYNGRDFHGWDEMVRIHHEMFDFYKGLRVEKVNVESVEIFDGRVLILLRIRVLVNGRTTDDHIHVEAKKIDGQWIIESVDFR” registered a protease stability score of 1.65.

“SEDEKEDHELSRHVIETLKTGDWELLSELADPHVRLKVNGKTYIGRELFTETVRRLLDRFKNMTLKIEDIKTVDGRLEIHIFLIVGDKFFELIIIATKVDGRWFEEEMHVHHS” had a protease stability score of 0.915.

“DEEEKRAREQYKLMFHNLQTGDEDTLKKLMDPNVRLDINGQEHHGRENVVKFWEHFIRKLGVKHMEWKDRDVEITENHVNFHGYIIIDIDGQERRLHTIIILRKVDGKWVVESLVFK” registered a protease stability score of 2.23.

Sequence “KEDEEYFREVTKNLLELIETGDFDMLTELLDPHMLLDVNGRTFHGWELAVEWYRQHVKKFGIDNIKVTLKHIHIQGNKIHLDVEVEIGDKTERREFVLTKINGRWRFDSVVVR” gave a protease stability score of 2.19.

As to “DEDHEHLKRMADRSWKIFLTGDEDTFVHLADPNVKQHINIDGRNHQNHGREVILRWQEEFQNYFKNMKIELHDMKFYDGRVHIDATLHWNGVERKIHLIFVIVDGRIKEERFHVR”, the protease stability score was 0.707.

Sequence “DEKHEFARRYYELEKKYLKTGDEEEWLKYVDPHVRVHVGDKDLVGMELAEEQWREIRYHHIDDKDMRIQGDKLHVKGRVDGTIGDKRHRVDMEVHIEIIDGRFKRIEVRIK” gave a protease stability score of 0.76.

Sequence “NDLERDAEHMLKLLIEAHLTGNEDIFEEFMDPNTRLVVGDKDNHGREFAEDYFKEWRVKHVRLKHYRSIGNYVEFDTETNVHVNGRDIRTETKITIVKIDGRWLLKVLIFG” came in with a protease stability score of 1.72.

The sequence “DEEEHRIIRFIKKVLDDIVTGDWDSFRRNLDPNAKLSAEFEGRREEHVGRDIATRWMREIRIHDMEIKDMRLIDGVNIVKGHFDGRINGQRIRTDTEIWLYVVDGRITSVTIHII” yielded a protease stability score of 0.776.

For “DEDEKVVKLVFNEIREARRTGDEEKLHELFDPHVRLEQGDKNIHGREYMITQWRELRFHDYRINITHRTTYNGVAKVDGEVSVDYRIDGVRFHDKFRIKIVILKFDGRWMIHSEHIE”, the protease stability score came out at 0.822.

With “SDKDKEFEKLFREYLRDLLTGDEESLRRLIDPNARFSYEVGDKTEERHGREEAVRWIIEIRIHSFRLRNSTYIGDKMHLEVESDGQYDGKRRFTEVHIEIILINGRVHEVHVWYV”, the protease stability score is 1.01.
